Patent US20240392004A1 (IMMUNOWAKE, published 2024)
Numbering of substitutions follows the chain as printed. Numbers in names are those of the source. One block for each binder: values may come before it.

Columns and labels:
mouse PD-1 = target: T1, mouse PD-1 (mouse, UniProt Q02242 25-167, limits assumed); experiment: PD-L2-Fc format, calibrated on PD-L2(wt)-Fc, method not stated
T1 construct: also called mPD-1
T1 sequence (looked up): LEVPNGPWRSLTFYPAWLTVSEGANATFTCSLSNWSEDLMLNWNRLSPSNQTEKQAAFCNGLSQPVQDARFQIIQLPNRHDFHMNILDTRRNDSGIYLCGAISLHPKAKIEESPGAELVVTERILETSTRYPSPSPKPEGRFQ

human PD-1 = target: T2, human PD-1 (human, UniProt Q15116 25-167, limits assumed); experiment: as above
T2 construct: also called hPD-1
T2 sequence (Q15116 25-167 limits assumed): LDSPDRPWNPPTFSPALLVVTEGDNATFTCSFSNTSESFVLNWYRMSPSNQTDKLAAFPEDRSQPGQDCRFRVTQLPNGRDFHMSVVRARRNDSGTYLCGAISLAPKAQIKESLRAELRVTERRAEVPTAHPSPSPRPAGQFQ

[1] = target: human IL-12 receptor complex (IL-12Rβ1 and IL-12Rβ2) (human, UniProt P42701 24-662; Q99665 24-862); experiment: cell-based or functional assay
human IL-12 receptor complex (IL-12Rβ1 and IL-12Rβ2), sequence (Q99665 24-862, chain 2 of 2, other chains not shown): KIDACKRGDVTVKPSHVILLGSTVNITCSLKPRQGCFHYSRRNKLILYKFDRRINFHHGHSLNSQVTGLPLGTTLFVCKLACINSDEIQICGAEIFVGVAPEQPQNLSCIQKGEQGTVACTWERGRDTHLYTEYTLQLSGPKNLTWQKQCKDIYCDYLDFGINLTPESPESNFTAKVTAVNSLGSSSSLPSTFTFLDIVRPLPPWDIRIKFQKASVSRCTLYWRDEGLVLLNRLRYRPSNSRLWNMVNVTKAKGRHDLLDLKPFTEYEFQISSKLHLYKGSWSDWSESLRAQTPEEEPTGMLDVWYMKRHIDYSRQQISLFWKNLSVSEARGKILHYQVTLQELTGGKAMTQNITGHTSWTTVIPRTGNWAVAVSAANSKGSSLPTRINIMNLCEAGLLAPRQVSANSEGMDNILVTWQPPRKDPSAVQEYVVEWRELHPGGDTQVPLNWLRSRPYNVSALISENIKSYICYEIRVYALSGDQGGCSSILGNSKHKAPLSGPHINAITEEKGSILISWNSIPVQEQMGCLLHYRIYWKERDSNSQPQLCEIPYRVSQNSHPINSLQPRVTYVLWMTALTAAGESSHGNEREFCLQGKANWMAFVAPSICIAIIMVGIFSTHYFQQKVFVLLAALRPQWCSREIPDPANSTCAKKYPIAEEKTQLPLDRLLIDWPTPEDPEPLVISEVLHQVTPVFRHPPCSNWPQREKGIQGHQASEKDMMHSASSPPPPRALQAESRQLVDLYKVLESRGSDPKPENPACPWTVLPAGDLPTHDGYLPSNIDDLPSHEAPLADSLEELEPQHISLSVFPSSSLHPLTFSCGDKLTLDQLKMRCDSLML

[2] = target: T3, IFN-γ receptor (IFNGR1 and IFNGR2) (UniProt P15260 18-489; P38484 22-337, limits assumed); experiment: cell-based or functional assay
T3 sequence (looked up) 1: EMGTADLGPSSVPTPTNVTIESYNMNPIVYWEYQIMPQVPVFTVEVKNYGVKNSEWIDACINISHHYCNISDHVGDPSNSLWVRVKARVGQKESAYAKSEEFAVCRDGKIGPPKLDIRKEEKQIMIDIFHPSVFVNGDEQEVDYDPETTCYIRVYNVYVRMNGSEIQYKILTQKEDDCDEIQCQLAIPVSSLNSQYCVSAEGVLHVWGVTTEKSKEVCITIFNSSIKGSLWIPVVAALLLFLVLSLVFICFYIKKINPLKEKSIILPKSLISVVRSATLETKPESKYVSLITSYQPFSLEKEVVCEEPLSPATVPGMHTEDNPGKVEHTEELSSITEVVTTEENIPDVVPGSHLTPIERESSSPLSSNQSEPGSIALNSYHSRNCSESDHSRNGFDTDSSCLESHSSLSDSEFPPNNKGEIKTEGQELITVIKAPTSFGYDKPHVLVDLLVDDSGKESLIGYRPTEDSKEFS
T3 sequence (looked up) 2: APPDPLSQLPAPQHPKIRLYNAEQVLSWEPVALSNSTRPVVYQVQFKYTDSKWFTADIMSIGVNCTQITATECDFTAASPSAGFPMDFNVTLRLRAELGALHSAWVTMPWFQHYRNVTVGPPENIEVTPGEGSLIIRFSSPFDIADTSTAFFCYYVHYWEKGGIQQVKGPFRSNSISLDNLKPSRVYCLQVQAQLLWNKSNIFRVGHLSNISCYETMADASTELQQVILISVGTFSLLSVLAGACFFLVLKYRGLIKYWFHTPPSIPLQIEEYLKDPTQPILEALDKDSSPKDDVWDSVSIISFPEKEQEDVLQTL

[3] = target: T4, human TIGIT on HEK-Blue reporter cells (human, UniProt Q495A1 22-244); experiment: cell-based or functional assay
T4 sequence (looked up): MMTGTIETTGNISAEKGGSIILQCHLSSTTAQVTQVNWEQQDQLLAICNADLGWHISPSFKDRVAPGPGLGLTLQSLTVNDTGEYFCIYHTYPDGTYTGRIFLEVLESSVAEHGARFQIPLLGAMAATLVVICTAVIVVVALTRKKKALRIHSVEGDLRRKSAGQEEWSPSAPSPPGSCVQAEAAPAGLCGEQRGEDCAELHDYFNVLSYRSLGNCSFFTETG

B1: PD-L2(mut2)-Fc, S58V (Fc fusion)
chain 1: LFTVTVPKELYIIEHGSNVTLECNFDTGSHVNLGAITAVLQKVENDTSPHRERATLLEEQLPLGKASFHIPQVQVRDEGQYQCIIIYGVAWDYKYLTLKVKASYRKINTHILKVPETDEVELTCQATGYPLAEVSWPNVSVPANTSHSRTPEGLYQVTSVLRLKPPPGRNFSCVFWNTHVRELTLASIDLQSQMEPRTHPTGGGGSGGGDKTHTCPPCPAPEDEGGPSVFLFPPKPKDTLMISRTPEVTCVVVDVSHEDPEVKFNWYVDGVEVHNAKTKPREEQYNSTYRVVSVLTVLHQDWLNGKEYKCKVSNKALPAPIEKTISKAKGQPREPQVYVYPPSREEMTKNQVSLTCLVKGFYPSDIAVEWESNGQPENNYKTTPPVLDEDGSFALVSKLTVDKSRWQQGNVFSCSVMHEALHNHYTQKSLSLSPGK
chain 2: B1 chain 1 with D223K, E224K, Y340L, T355L, N379R, K381M, T383W, E389S, A394F, V396Y
notes: also called PD-L2(S58V)
Kd (mouse PD-1): 230 nM | Kd (human PD-1): 350 nM

B3: PD-L2(mut1)-Fc, T56V (Fc fusion)
chain 1: LFTVTVPKELYIIEHGSNVTLECNFDTGSHVNLGAIVASLQKVENDTSPHRERATLLEEQLPLGKASFHIPQVQVRDEGQYQCIIIYGVAWDYKYLTLKVKASYRKINTHILKVPETDEVELTCQATGYPLAEVSWPNVSVPANTSHSRTPEGLYQVTSVLRLKPPPGRNFSCVFWNTHVRELTLASIDLQSQMEPRTHPTDKTHTCPPCPAPEDEGGPSVFLFPPKPKDTLMISRTPEVTCVVVDVSHEDPEVKFNWYVDGVEVHNAKTKPREEQYNSTYRVVSVLTVLHQDWLNGKEYKCKVSNKALPAPIEKTISKAKGQPREPQVYVYPPSREEMTKNQVSLTCLVKGFYPSDIAVEWESNGQPENNYKTTPPVLDEDGSFALVSKLTVDKSRWQQGNVFSCSVMHEALHNHYTQKSLSLSPGK
chain 2: B3 chain 1 with D215K, E216K, Y332L, T347L, N371R, K373M, T375W, E381S, A386F, V388Y
Kd (mouse PD-1): 430 nM | Kd (human PD-1): 520 nM

B5: IL-12(E59A/F60A)/IFN-γ(A23V/A23V)/CD155-Fc (Fc fusion)
chain 1: WPPPGTGDVVVQAPTQVPGFLGDSVTLPCYLQVPNMEVTHVSQLTWARHGESGSMAVFHQTQGPSYSESKRLEFVAARLGAELRNASLRMFGLRVEDEGNYTCLFVTFPQGSRSVDIWLRVLAKPQNTAEVQKVQLTGEPVPMARCVSTGGRPPAQITWHSDLGGMPNTSQVPGFLSGTVTVTSLWILVPSSQVDGKNVTCKVEHESFEKPQLLTVNLTVYYPPEVSISGYDNNWYLGQNEATLTCDARSNPEPTGYNWSTTMGPLPPFAVAQGAQLLIRPVDKPINTTLICNVTNALGARQAELTVQVKEGPPSEHSGISRNGGGGSGGGIWELKKDVYVVELDWYPDAPGEMVVLTCDTPEEDGITWTLDQSSEVLGSGKTLTIQVKAAGDAGQYTCHKGGEVLSHSLLLLHKKEDGIWSTDILKDQKEPKNKTFLRCEAKNYSGRFTCWWLTTISTDLTFSVKSSRGSSDPQGVTCGAATLSAERVRGDNKEYEYSVECQEDSACPAAEESLPIEVMVDAVHKLKYENYTSSFFIRDIIKPDPPKNLQLKPLKNSRQVEVSWEYPDTWSTPHSYFSLTFCVQVQGKSKREKKDRVFTDKTSATVICRKNASISVRAQDRYYSSSWSEWASVPCSGGGGSGGGSGGGGSRNLPVATPDPGMFPCLHHSQNLLRAVSNMLQKARQTLEFYPCTSEEIDHEDITKDKTSTVEACLPLELTKNESCLNSRETSFITNGSCLASRKTSFMMALCLSSIYEDLKMYQVEFKTMNAKLLMDPKRQIFLDQNMLAVIDELMQALNFNSETVPQKSSLEEPDFYKTKIKLCILLHAFRIRAVTIDRVMSYLNASGGGGSGGGDKTHTCPPCPAPEDEGGPSVFLFPPKPKDTLMISRTPEVTCVVVDVSHEDPEVKFNWYVDGVEVHNAKTKPREEQYNSTYRVVSVLTVLHQDWLNGKEYKCKVSNKALPAPIEKTISKAKGQPREPQVYVYPPSREEMTKNQVSLTCLVKGFYPSDIAVEWESNGQPENNYKTTPPVLDEDGSFALVSKLTVDKSRWQQGNVFSCSVMHEALHNHYTQKSLSLSPGK
chain 2: WPPPGTGDVVVQAPTQVPGFLGDSVTLPCYLQVPNMEVTHVSQLTWARHGESGSMAVFHQTQGPSYSESKRLEFVAARLGAELRNASLRMFGLRVEDEGNYTCLFVTFPQGSRSVDIWLRVLAKPQNTAEVQKVQLTGEPVPMARCVSTGGRPPAQITWHSDLGGMPNTSQVPGFLSGTVTVTSLWILVPSSQVDGKNVTCKVEHESFEKPQLLTVNLTVYYPPEVSISGYDNNWYLGQNEATLTCDARSNPEPTGYNWSTTMGPLPPFAVAQGAQLLIRPVDKPINTTLICNVTNALGARQAELTVQVKEGPPSEHSGISRNGGGSGQDPYVKEAENLKKYFNAGHSDVVDNGTLFLGILKNWKEESDRKIMQSQIVSFYFKLFKNFKDDQSIQKSVETIKEDMNVKFFNSNKKKRDDFEKLTNYSVTDLNVQRKAIHELIQVMAELSPAAKTGKRKRSQMLFRGGGGSGGGGSGGGGSGGGGSQDPYVKEAENLKKYFNAGHSDVVDNGTLFLGILKNWKEESDRKIMQSQIVSFYFKLFKNFKDDQSIQKSVETIKEDMNVKFFNSNKKKRDDFEKLTNYSVTDLNVQRKAIHELIQVMAELSPAAKTGKRKRSQMLFRGGGGGSGGGDKTHTCPPCPAPEKKGGPSVFLFPPKPKDTLMISRTPEVTCVVVDVSHEDPEVKFNWYVDGVEVHNAKTKPREEQYNSTYRVVSVLTVLHQDWLNGKEYKCKVSNKALPAPIEKTISKAKGQPREPQVYVLPPSREEMTKNQVSLLCLVKGFYPSDIAVEWESNGQPENRYMTWPPVLDSDGSFFLYSKLTVDKSRWQQGNVFSCSVMHEALHNHYTQKSLSLSPGK
IL-12 signal transduction, HEK-IL-12 [1]: < 0.2% | IFN-γ signal transduction, HEK-IFN-γ [2]: < 0.2% | IL-12 signal transduction, HEK-IL-12-TIGIT [3]: 40%

B6: IFN-γ(A23V/A23V)/CD155-Fc (Fc fusion)
chain 1: WPPPGTGDVVVQAPTQVPGFLGDSVTLPCYLQVPNMEVTHVSQLTWARHGESGSMAVFHQTQGPSYSESKRLEFVAARLGAELRNASLRMFGLRVEDEGNYTCLFVTFPQGSRSVDIWLRVLAKPQNTAEVQKVQLTGEPVPMARCVSTGGRPPAQITWHSDLGGMPNTSQVPGFLSGTVTVTSLWILVPSSQVDGKNVTCKVEHESFEKPQLLTVNLTVYYPPEVSISGYDNNWYLGQNEATLTCDARSNPEPTGYNWSTTMGPLPPFAVAQGAQLLIRPVDKPINTTLICNVTNALGARQAELTVQVKEGPPSEHSGISRNGGGGSGGGDKTHTCPPCPAPEDEGGPSVFLFPPKPKDTLMISRTPEVTCVVVDVSHEDPEVKFNWYVDGVEVHNAKTKPREEQYNSTYRVVSVLTVLHQDWLNGKEYKCKVSNKALPAPIEKTISKAKGQPREPQVYVYPPSREEMTKNQVSLTCLVKGFYPSDIAVEWESNGQPENNYKTTPPVLDEDGSFALVSKLTVDKSRWQQGNVFSCSVMHEALHNHYTQKSLSLSPGK
chain 2: B5 chain 2
IFN-γ signal transduction, HEK-IFN-γ [2]: < 0.2%

Continued, values first:

Kd (mouse PD-1): 220 nM | Kd (human PD-1): 255 nM
B2: PD-L2(mut4)-Fc, T56V/S58V/Q60L (Fc fusion)
chain 1: B1 chain 1 with T37V, Q41L
chain 2: LFTVTVPKELYIIEHGSNVTLECNFDTGSHVNLGAIVAVLLKVENDTSPHRERATLLEEQLPLGKASFHIPQVQVRDEGQYQCIIIYGVAWDYKYLTLKVKASYRKINTHILKVPETDEVELTCQATGYPLAEVSWPNVSVPANTSHSRTPEGLYQVTSVLRLKPPPGRNFSCVFWNTHVRELTLASIDLQSQMEPRTHPTGGGGSGGGDKTHTCPPCPAPEKKGGPSVFLFPPKPKDTLMISRTPEVTCVVVDVSHEDPEVKFNWYVDGVEVHNAKTKPREEQYNSTYRVVSVLTVLHQDWLNGKEYKCKVSNKALPAPIEKTISKAKGQPREPQVYVLPPSREEMTKNQVSLLCLVKGFYPSDIAVEWESNGQPENRYMTWPPVLDSDGSFFLYSKLTVDKSRWQQGNVFSCSVMHEALHNHYTQKSLSLSPGK

Kd (mouse PD-1): 320 nM | Kd (human PD-1): 490 nM
B4: PD-L2(mut3)-Fc, Q60L (Fc fusion)
chain 1: B3 chain 1 with V37T, Q41L
chain 2: LFTVTVPKELYIIEHGSNVTLECNFDTGSHVNLGAITASLLKVENDTSPHRERATLLEEQLPLGKASFHIPQVQVRDEGQYQCIIIYGVAWDYKYLTLKVKASYRKINTHILKVPETDEVELTCQATGYPLAEVSWPNVSVPANTSHSRTPEGLYQVTSVLRLKPPPGRNFSCVFWNTHVRELTLASIDLQSQMEPRTHPTDKTHTCPPCPAPEKKGGPSVFLFPPKPKDTLMISRTPEVTCVVVDVSHEDPEVKFNWYVDGVEVHNAKTKPREEQYNSTYRVVSVLTVLHQDWLNGKEYKCKVSNKALPAPIEKTISKAKGQPREPQVYVLPPSREEMTKNQVSLLCLVKGFYPSDIAVEWESNGQPENRYMTWPPVLDSDGSFFLYSKLTVDKSRWQQGNVFSCSVMHEALHNHYTQKSLSLSPGK
